Data published in the supplement of paper PMC10567573.

B1: DVL3 (parent)
chain: FCADNPSELPPPMERTGGIGDSRP
B2: KIAA1161 (parent)
chain: FMPAMQFSIPPWRYDAEVVAIAQK

Variants of: B1
Experiment: protein stability index of a GFP-peptide fusion (GPS, HEK-293T) (PSI 1-6); higher = more stable
Conditions: c terminus: a fixed tail appended
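Note: lentivirally expressed fusions sorted by FACS into six bins by GFP to DsRed ratio, PSI derived from sequencing read proportions per bin multiplied by bin number.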

Row | Variant | protein stability index
1 | A3W | 3.64
2 | A3V | 4.78
3 | A3D | 5.11
4 | A3S | 4.81
5 | A3N | 4.79
6 | A3K | 4.34
7 | A3C | 4.13
8 | A3Q | 3.45
9 | A3M | 4.48
10 | A3F | 3.56
11 | A3I | 4.25
12 | A3Y | 4.49
13 | A3E | 5.23
14 | A3P | 4.17
15 | A3T | 4.29
16 | A3H | 4.37
17 | C2Y | 4.75
18 | C2F | 4.31
19 | C2L | 5
20 | C2T | 5.06
21 | C2I | 4.71
22 | C2G | 4.83

Row | Variant | protein stability index
23 | C2M | 4.71
24 | C2H | 4.36
25 | C2K | 4.68
26 | C2V | 3.27
27 | C2A | 4.77
28 | C2W | 3.44
29 | C2S | 5
30 | C2D | 5.46
31 | C2R | 4.58
32 | C2N | 4.43
33 | C2P | 4.73
34 | D4A | 4.19
35 | D4Q | 3.36
36 | D4I | 3.71
37 | D4R | 4.36
38 | D4L | 3.83
39 | D4K | 2.85
40 | D4M | 3.26
41 | D4F | 3.08
42 | D4N | 3.96
43 | D4G | 4.37
44 | D4H | 4.27

Row | Variant | protein stability index
45 | D4E | 5
46 | F1K | 4.86
47 | F1R | 4.68
48 | F1E | 5.12
49 | F1G | 5.33
50 | F1T | 4.99
51 | F1N | 5.58
52 | F1S | 4.94
53 | F1M | 3.45
54 | F1P | 5.44
55 | F1Y | 4.89
56 | F1H | 5.25
57 | F1A | 5.49
58 | F1L | 4.63
59 | F1V | 5.18
60 | F1D | 5.43
61 | F1W | 4.26
62 | F1I | 5.05
63 | F1C | 3.99
64 | F1Q | 4.83

Variants of: B2
Experiment: as above
Conditions: c terminus: a fixed tail appended

Row | Variant | protein stability index
65 | A22N | 1.6
66 | A22Y | 1.23
67 | A22V | 2.01
68 | A22H | 1.9
69 | A22D | 1.96
70 | A22K | 1.88
71 | A22T | 2.51
72 | A22Q | 2.56
73 | A22F | 2.18
74 | A22S | 1.94
75 | A22P | 2.58
76 | A22L | 2.45
77 | D15G | 1.75
78 | D15M | 2.56
79 | D15E | 2.5
80 | D15W | 1.19
81 | D15S | 1.24
82 | D15K | 1.25
83 | D15P | 1.17
84 | D15R | 1.95
85 | D15L | 1.5
86 | D15N | 3.08
87 | D15T | 2.69
88 | D15Q | 1.94
89 | D15Y | 3.05

Row | Variant | protein stability index
90 | E17G | 1.72
91 | E17N | 1.62
92 | E17F | 2.13
93 | E17R | 1.38
94 | E17Y | 2.45
95 | E17Q | 3.67
96 | E17C | 1.68
97 | E17W | 3.06
98 | E17D | 1.54
99 | E17V | 1.24
100 | E17P | 1.48
101 | E17K | 2.66
102 | E17A | 1.2
103 | E17H | 1.92
104 | E17I | 1.52
105 | E17S | 1.62
106 | S8V | 2
107 | S8I | 2.81
108 | S8G | 1.65
109 | S8T | 1.64
110 | S8P | 2.1
111 | S8F | 2.68
112 | S8R | 1.99
113 | S8M | 1.71
114 | S8D | 1.54

Row | Variant | protein stability index
115 | S8A | 1.69
116 | S8Q | 2.11
117 | S8N | 2.7
118 | S8K | 2.93
119 | S8L | 2.05
120 | S8C | 1.07
121 | Y14S | 2.13
122 | Y14F | 1.63
123 | Y14N | 2.37
124 | Y14Q | 2.57
125 | Y14C | 1.67
126 | Y14A | 2.2
127 | Y14G | 1.93
128 | Y14H | 2.52
129 | Y14K | 2.08
130 | Y14M | 2.25
131 | Y14D | 2.2
132 | Y14T | 2.82
133 | Y14P | 1.79
134 | Y14L | 1.59
135 | Y14I | 1.05
136 | V19T | 2.21
137 | V19I | 1.46
138 | V19H | 1.56
139 | V19D | 2.82

Row | Variant | protein stability index
140 | V19F | 2.48
141 | V19Y | 3.33
142 | V19S | 1.48
143 | V19C | 2.39
144 | V19E | 2.42
145 | V19R | 2.83
146 | V19N | 3.31
147 | V19A | 2.18
148 | V19G | 2.2
149 | V19P | 4.1
150 | V19Q | 2.5
151 | V19K | 1.99
152 | V19M | 1.81
153 | V19L | 1.47
154 | A16P | 2.08
155 | A16I | 3.3
156 | A16V | 2.52
157 | A16N | 2.02
158 | A16G | 1.2
159 | A16T | 3.04
160 | A16D | 2.25
161 | A16F | 2.28
162 | A16Y | 2.19
163 | A16H | 1.63
164 | A16Q | 1.62

Row | Variant | protein stability index
165 | A16K | 1.59
166 | A16R | 2.65
167 | A16W | 1.66
168 | A16S | 1.72
169 | A16M | 1.53
170 | A16E | 1.97
171 | P10G | 1.33
172 | P10S | 2.42
173 | P10Q | 1.64
174 | P10Y | 2.34
175 | P10M | 1
176 | P10H | 1.77
177 | P10A | 1.33
178 | P10D | 1.27
179 | P10L | 2.99
180 | P10I | 2.86
181 | P10R | 1.28
182 | P10E | 2.5
183 | P10T | 2
184 | P10W | 3.74
185 | P10K | 2.57
186 | R13D | 2.67
187 | R13Y | 1.69
188 | R13Q | 2.53
189 | R13F | 1.1

Row | Variant | protein stability index
190 | R13W | 1.58
191 | R13S | 1.63
192 | R13G | 1.53
193 | R13T | 2.02
194 | R13E | 2.48
195 | R13K | 2.21
196 | R13V | 1.16
197 | R13A | 2.04
198 | R13P | 2.17
199 | R13I | 1.81
200 | R13N | 2.51
201 | F7S | 1.6
202 | F7T | 2.24
203 | F7Y | 1.7
204 | F7W | 1.68
205 | Q23N | 1.85
206 | Q23M | 3.29
207 | Q23S | 1.52
208 | Q23G | 1.78
209 | Q23D | 2.69
210 | Q23T | 1.92
211 | Q23H | 1.66
212 | Q23Y | 1.3
213 | Q23K | 2.2
214 | Q23F | 1.35

Row | Variant | protein stability index
215 | Q23A | 2.23
216 | Q23W | 2.74
217 | Q23P | 1.99
218 | I21L | 1.93
219 | I21V | 1.68
220 | I21P | 2.16
221 | I21Q | 2.81
222 | I21K | 2.07
223 | I21D | 2.59
224 | I21Y | 1.64
225 | I21N | 2.11
226 | I21R | 2.31
227 | I21T | 2.17
228 | I21E | 2.6
229 | I21F | 2.52
230 | I21G | 2.66
231 | I21H | 2.32
232 | I21S | 2.38
233 | W12R | 2.39
234 | W12A | 2.31
235 | W12I | 2.18
236 | W12C | 1.73
237 | W12D | 2.55
238 | W12P | 2.74
239 | W12N | 2.49

Row | Variant | protein stability index
240 | W12G | 2.76
241 | W12M | 2.7
242 | W12S | 2.48
243 | W12L | 2.23
244 | W12Q | 2.3
245 | W12H | 2.53
246 | W12F | 2.26
247 | W12K | 2.17
248 | W12T | 2.44
249 | W12Y | 1.99
250 | W12E | 2.08
251 | A20D | 3.07
252 | A20P | 2.16
253 | A20T | 1.92
254 | A20K | 2.34
255 | A20E | 2.42
256 | A20H | 1.97
257 | A20G | 1.98
258 | A20M | 1.32
259 | A20Q | 2.41
260 | A20F | 2.54
261 | A20C | 2.22
262 | A20N | 3.44
263 | A20S | 1.59
264 | A20W | 1.04

Row | Variant | protein stability index
265 | A20V | 1.91
266 | A20R | 1.98
267 | V18E | 2.63
268 | V18L | 2.23
269 | V18M | 1.88
270 | V18H | 2.93
271 | V18G | 2.6
272 | V18P | 2.96
273 | V18R | 3.34
274 | V18I | 2.06
275 | V18A | 2.17
276 | V18D | 2.36
277 | V18K | 2.33
278 | V18C | 1.86
279 | V18W | 3.22
280 | V18N | 2.23
281 | V18Y | 2.03
282 | V18Q | 2.81
283 | V18F | 1.62
284 | V18S | 2.05
285 | V18T | 1.88
286 | K24F | 2
287 | K24G | 1.33
288 | K24N | 2.58
289 | K24L | 2.62

Row | Variant | protein stability index
290 | K24T | 1.63
291 | K24S | 1.68
292 | K24A | 2.31
293 | K24V | 2.36
294 | K24P | 2.01
295 | K24R | 1.67
296 | K24H | 2.54
297 | K24Q | 1.86
298 | K24E | 1.82
299 | K24M | 1.33
300 | K24C | 1.61
301 | K24D | 1.82
302 | P11V | 1.01
303 | P11H | 3.1
304 | P11K | 1.65
305 | P11A | 1.61
306 | P11D | 2.37
307 | P11G | 1.48
308 | P11C | 1.79
309 | P11L | 2.24
310 | P11R | 1.48
311 | P11N | 2.11
312 | P11F | 2.17
313 | P11S | 2.03
314 | P11T | 1.69

Row | Variant | protein stability index
315 | P11I | 1.59
316 | P11Q | 1.78
317 | P11Y | 2.28
318 | P11E | 1.64
319 | I9A | 2
320 | I9E | 2.37
321 | I9H | 2.35
322 | I9R | 1.6
323 | I9G | 1.95
324 | I9T | 1.8
325 | I9P | 1.93
326 | I9Y | 2.83
327 | I9N | 2.28
328 | I9W | 3.43
329 | I9Q | 1.67
330 | I9F | 2.48
331 | I9K | 1.84
332 | I9M | 2.04
333 | I9D | 2.57
334 | I9S | 2.08
